Results as given in patent publication US9206239B2, “Treatment of cancers with immunostimulatory HIV Tat derivative polypeptides” (PIN Pharma, Inc., priority 2009, dated 2015).
Entries after “also recorded” stand apart in the source; their conditions may differ.

Key:
4T1 cells = assay: Repeated dosing of Nani-P2 alternating with cyclophosphamide in 4T1 tumor-bearing mice; assay type: in vivo, BALB/c mice; conditions: by day 42; 80 mg/kg IP weekly from day 10
Method: Four groups of 10 BALB/c mice were implanted with 1×10^4 4T1 cells SC into the mammary fat pad. Treatment was initiated when tumor diameters reached 4-5 mm, on day 10. Control mice were injected IV with PBS at 3 days intervals, while alternating treatment mice received 3 doses of drug every 3 days in rotating 10 day cycles. Tumor burden (tumor size mm^3) was calculated using a standard formula. CY: (cyclophosphamide alone) mice were injected IP weekly with 80 mg/kg per mouse beginning on day 10. Cy/Nani-P2: (cyclophosphamide first followed by Nani-P2) mice were first injected IP with cyclophosphamide (80 mg/kg) at 3 days intervals for three doses starting at day 10 and then injected IV with Nani-P2 (40 ng) at 3 days intervals for three doses in rotation. The cycle of 3 doses of CY followed by 3 doses of Nani-P2 was repeated until day 50. Nani-P2/CY: (Nani-P2 first followed by cyclophosphamide): mice were first injected IV with Nani-P2 (40 ng) at 3 day intervals for 3 doses starting on day 10 and then injected i.p. with cyclophosphamide at 3 day intervals in rotation. The cycle of 3 doses of Nani-P2 followed by 3 doses of CY was repeated until day 50.

4T1 breast tumor cells = assay: 4T1 breast tumor growth in BALB/c mice; assay type: in vivo
Source text: Female BALB/c mice 6 to 8 weeks old were purchased from the Jackson Laboratory (Bar Harbor, […].). Mice were acclimated for at least 1 week before use. Mice were kept in pathogen-free conditions at the Animal Maintenance Facility of the Columbia University of Medical Center and all experiments were approved by the Institutional Animal Care and Use Committee of Columbia University of Medical Center.
4T1 cells, a 6-thioguanine-resistant cell line derived from a BALB/c spontaneous mammary carcinoma was obtained from ATCC; TS/A, a murine adenocarcinoma cell line was provided by Dr. Sandra Demaria (Demaria S. et al. Clin Cancer Res. 11:728-34, 2005); and SM1, the BALB/C-derived mammary carcinoma was kindly was provided by Dr. James Allison, University of California, Berkeley. All tumor cell lines were cultured in DMEM, supplemented with 2 mM L-glutamine, 10 mM HEPES, 150 units/ml penicillin/streptomycin, 10% heat-inactivated FCS (Invitrogen), 50 μM 2-mercaptoethanol (Sigma), and 50 mg/L gentamicin (Lanza).
BALB/c were injected (SC) with 1×10^4 4T1, 1×10^5 TS/A or 2×10^5 SM1 cells, respectively, in the left mammary pad on day 0. Immunotherapy was performed by directly injecting a Tat derivative into the right flank at 0, 7, 12, and 17 days after establishment of tumors. The control group received PBS injection. […] Tumor burden (tumor volume) was measured and recorded three times weekly. Animals were sacrificed when tumors reached a volume of 15 mm in diameter and the tumors harvested and weighed.
The therapeutic effect of systemic administration of synthetic, Tat-derived compositions in murine models of breast cancer was investigated. To compare the relative protection conferred by a small panel of different derivatives against primary breast tumor growth, female BALB/c mice were injected with 1×10^4 4T1 breast tumor cells SC into the mammary pad, and then treated with 400 ng partially-purified Tat derivatives at day 0, 7, 14 and 21 (SC injection in PBS) into the draining axillary lymph nodes.

`O=P1(N(CCCl)CCCl)NCCCO1` (stereo not drawn) [cyclophosphamide, reference compound] was tested. Which treated mice dead (4T1 cells) did it give?
Its treated mice dead is 10/10.

B1: Nani-P1: HIV Tat derivative polypeptide, SEQ ID NO: 2; internal prolines of the SH3-binding site each substituted as alanine (protein)
chain: MEPVDANLEAWKHAGSQPRKTACTTCYCKKCCFHCQVCFTRKGLGISYGRKKRRQRRRAPQDSQTHQASLSKQPASQSRGDPTGPTESKKKVERETETDPFD
modifications: Nani-P1 modified HIV Tat sequence
How did the “tumor burden compared to control mice receiving PBS” value (4T1 breast tumor cells; 400 ng partially-purified derivative SC day 0, 7, 14, 21, apparent from day 15 (p<0.05)) turn out when B1 was run?
The value was “significantly reduced tumor burden”.

B2: Nani-P3: HIV Tat derivative polypeptide, SEQ ID NO: 4; serine-rich TARA homology sequence replaces the SH3 binding sequence (protein)
chain: METPLKEQENSLESCREHSSSISEVDVPTPVSCLRKGGRCWNRCIGNTRQIGSCGVPFLKCCKRKPFTRKGLGISYGRKKRRQRRRAPQDSQTHQASLSKQPASQSRGDPTGPTESKKKVERETETDPFD
modifications: Nani-P3 modified HIV Tat sequence
With B2 as the molecule, how does the “4T1 primary tumor growth vs controls” value (4T1 breast tumor cells; 400 ng or 2 μg SC days 0, 7, 14, 21) read?
The value was “less effective at suppressing 4T1 primary tumor growth; also recorded: no difference”.
